Source: the PETadex activity labels (doi:10.1021/acscatal.9b00568)

B1: unnamed (protein)
chain: MNFPRASRLMQAAVLGGLMAVSAAATAQTNPYARGPNPTAASLEASAGPFTVRSFTVSRPSGYGAGTVYYPTNAGGTVGAIAIVPGYTARQSSIKWWGPRLASHGFVVITIDTNSTLDQPESRSSQQMAALRQVASLNGTSSSPIYGKVDTARMGVMGWSMGGGGSLISAANNPSLKAAAAQAPWHSSTNFSSVTVPTLIFACENDSIAPVNSSALPIYDSMSRNAKQFLEINGGSHSCANSGNSNQALIGKKGVAWMKRFMDNDTRYSTFACENPNSTRVSDFRTANCS
B2: unnamed (protein)
chain: MNFPRASRLMQAAVLGGLMAVSAAATAQTNPYARGPNPTAASLEASAGPFTVRSFTVSRPSGYGAGTVYYPTNAGGTVGAIAIVPGYTARQSSIKWWGPRLASHGFVVITIDTNSTLDQPSSRSSQQMAALRQVASLNGTSSSPIYGKVDTARMGVMGWSMGGGGSLISAANNPSLKAAAPQAPWISSTNFSSVTVPTLIFACENDSIAPVNSSALPIYDSMSRNAKQFLEINGGSHSCANSGNSNQALIGKKGVAWMKRFMDNDTRYSTFACENPNSTRVSDFRTANCS
B3: unnamed (protein)
chain: MNFPRASRLMQAAVLGGLMAVSAAATAQTNPYARGPNPTAASLEASAGPFTVRSFTVSRPSGYGAGTVYYPTNAGGTVGAIAIVPGYTARQSSIKWWGPRLASHGFVVITIDTNSTLDQPDSRSSQQMAALRQVASLNGTSSSPIYGKVDTARMGVMGWSMGGGGSLISAANNPSLKAAAPQAPWHSSTNFSSVTVPTLIFACENDSIAPVNSSALPIYDSMSRNAKQFLEINGGSHSCANSGNSNQALIGKKGVAWMKRFMDNDTRYSTFACENPNSTAVSDFRTANCS
B4: unnamed (protein)
chain: MNFPRASRLMQAAVLGGLMAVSAAATAQTNPYARGPNPTAASLEASAGPFTVRSFTVSRPSGYGAGTVYYPTNAGGTVGAIAIVPGYTARQSSIKWWGPRLASHGFVVITIDTNSTLDQPESRSSQQMAALRQVASLNGTSSSPIYGKVDTARMGVMGWSMGGGGSLISAANNPSLKAAAPQAPWHSSTNFSSVTVPTLIFACENDSIAPVNSSALPIYDSMSRNAKQFLEINGGSHSCANSGNSNQALIGKKGVAWMKRFMDNDTRYSTFACENPNSTRVSDFRTANCS
B5: unnamed (protein)
chain: MNFPRASRLMQAAVLGGLMAVSAAATAQTNPYARGPNPTAASLEASAGPFTVRSFTVSRPSGYGAGTVYYPTNAGGTVGAIAIVPGYTARQSSIKWWGPRLASHGFVVITIDTNSTLDQPSSRSSQQMAALRQVASLNGTSSSPIYGKVDTARMGVMGWSMGGGGSLISAANNPSLKAAAPQAPWHSSTNFSSVTVPTLIFACENDSIAPVNSSALPIYDSMSRNAKQFLEINGGSHSCANSGNSNQALIGKKGVAWMKRFMDNDTRYSTFACENPNSTRVSDFRTANCS
B6: unnamed (protein)
chain: MNFPRASRLMQAAVLGGLMAVSAAATAQTNPYARGPNPTAASLEASAGPFTVRSFTVSRPSGYGAGTVYYPTNAGGTVGAIAIVPGYTARQSSIKWWGPRLASHGFVVITIDTNSTLDQPDSRSSQQMAALRQVASLNGTSSSPIYGKVDTARMGVMGWSMGGGGSLISAANNPSLKAAAAQAPWHSSTNFSSVTVPTLIFACENDSIAPVNSSALPIYDSMSRNAKQFLEINGGSHSCANSGNSNQALIGKKGVAWMKRFMDNDTRYSTFACENPNSTRVSDFRTANCS

substrate: PET; experiment: Proxy for plastic degradation [HPLC-UV]; conditions: pH 9; 30 °C; 24 h

Compared with B1, B2 is 8.2-fold lower in “Proxy for plastic degradation” value: 10.6 µM for the first, 1.3 µM for the second.

B3 and B4 are within 1.5-fold of each other in “Proxy for plastic degradation” value: 22.2 µM for the first, 18.8 µM for the second.

B5 and B6 are within 1.5-fold of each other in “Proxy for plastic degradation” value: 10.4 µM for the first, 13.4 µM for the second.

same assay, conditions: pH 9; 30 °C; 72 h

First: B1
Second: B2
The “Proxy for plastic degradation” value of the first is 5.7-fold higher: 13.7 µM for the first, 2.4 µM for the second.

Going from B3 to B4, the “Proxy for plastic degradation” value falls from 57.2 µM to 30.5 µM (1.9-fold).

B5 and B6 are within 1.5-fold of each other in “Proxy for plastic degradation” value: 12.8 µM for the first, 18.9 µM for the second.

same assay, conditions: pH 9; 40 °C; 24 h

Compared with B1, B2 is 12-fold lower in “Proxy for plastic degradation” value: 13.9 µM for the first, 1.2 µM for the second.

Going from B3 to B4, the “Proxy for plastic degradation” value falls from 69.8 µM to 38.7 µM (1.8-fold).

First: B5
Second: B6
The “Proxy for plastic degradation” value of the first is 2.1-fold lower: 8.7 µM for the first, 18 µM for the second.

same assay, conditions: pH 9; 40 °C; 72 h

First: B1
Second: B2
The “Proxy for plastic degradation” value of the first is 2.9-fold higher: 19.8 µM for the first, 6.9 µM for the second.

Going from B3 to B4, the “Proxy for plastic degradation” value falls from 93.6 µM to 52.2 µM (1.8-fold).

B5 and B6 are within 1.5-fold of each other in “Proxy for plastic degradation” value: 19.7 µM for the first, 25.3 µM for the second.
